Literature values as cited in patent US11878064B2, “Nanoparticle/peptide method of blocking potassium channels” (US Department of the Navy, priority 2019, dated 2024).
Where no end group is shown, it is not given here.

Target: T1, ROMK1 channels (Homo sapiens, UniProt P48048)
T1 sequence (P48048 1-391): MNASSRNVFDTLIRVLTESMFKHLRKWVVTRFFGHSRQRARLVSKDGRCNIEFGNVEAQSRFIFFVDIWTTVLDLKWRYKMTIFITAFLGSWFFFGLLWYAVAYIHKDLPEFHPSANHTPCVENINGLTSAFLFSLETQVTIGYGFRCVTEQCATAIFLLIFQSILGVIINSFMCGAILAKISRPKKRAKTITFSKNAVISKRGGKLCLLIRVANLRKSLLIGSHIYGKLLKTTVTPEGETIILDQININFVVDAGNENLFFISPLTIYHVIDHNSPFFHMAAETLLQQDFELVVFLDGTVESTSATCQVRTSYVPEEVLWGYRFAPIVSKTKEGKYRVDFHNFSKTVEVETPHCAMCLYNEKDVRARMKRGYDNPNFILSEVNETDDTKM
Details: read-out: binding affinity

tertiapin (ALCNCNRIIIPHMCWKKCGKK; ends and bridges not checked; cysteine pairing not given here; UniProt P56587 1-21, looked up) [TPN]
Kd: ~2 nM
